Measurements reported in patent US20030104981A1, “Human insulin analogues” (priority 1995, published 2003).

What was measured:
[1] = target: insulin-degrading enzyme (IDE); assay: cell-based or functional assay
[2] = target: insulin receptor in the LB lymphoma cell; assay: competition with native insulin for insulin receptors on LB lymphoma cells
Sequence of insulin receptor in the LB lymphoma cell (P15208 28-748, chain 1 of 2): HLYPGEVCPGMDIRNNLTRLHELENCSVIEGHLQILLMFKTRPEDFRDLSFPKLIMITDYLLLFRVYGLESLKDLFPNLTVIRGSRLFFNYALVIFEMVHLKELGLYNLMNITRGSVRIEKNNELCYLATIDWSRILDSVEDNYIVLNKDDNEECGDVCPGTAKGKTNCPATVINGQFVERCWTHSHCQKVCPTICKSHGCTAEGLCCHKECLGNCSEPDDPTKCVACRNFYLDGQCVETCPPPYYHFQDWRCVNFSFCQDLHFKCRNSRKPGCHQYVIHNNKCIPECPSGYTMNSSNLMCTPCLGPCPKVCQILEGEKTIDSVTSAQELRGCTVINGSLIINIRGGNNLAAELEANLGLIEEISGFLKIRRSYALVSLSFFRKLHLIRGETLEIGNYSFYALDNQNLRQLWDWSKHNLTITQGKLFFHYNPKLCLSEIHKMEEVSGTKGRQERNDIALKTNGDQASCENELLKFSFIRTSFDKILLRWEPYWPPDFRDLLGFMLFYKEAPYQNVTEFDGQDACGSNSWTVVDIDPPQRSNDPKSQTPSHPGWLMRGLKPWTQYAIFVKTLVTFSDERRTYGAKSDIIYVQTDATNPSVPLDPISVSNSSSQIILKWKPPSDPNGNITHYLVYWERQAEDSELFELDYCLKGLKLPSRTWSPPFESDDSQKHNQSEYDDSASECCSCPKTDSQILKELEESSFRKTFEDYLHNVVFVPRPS
Sequence of insulin receptor in the LB lymphoma cell (P15208 753-1372, chain 2 of 2): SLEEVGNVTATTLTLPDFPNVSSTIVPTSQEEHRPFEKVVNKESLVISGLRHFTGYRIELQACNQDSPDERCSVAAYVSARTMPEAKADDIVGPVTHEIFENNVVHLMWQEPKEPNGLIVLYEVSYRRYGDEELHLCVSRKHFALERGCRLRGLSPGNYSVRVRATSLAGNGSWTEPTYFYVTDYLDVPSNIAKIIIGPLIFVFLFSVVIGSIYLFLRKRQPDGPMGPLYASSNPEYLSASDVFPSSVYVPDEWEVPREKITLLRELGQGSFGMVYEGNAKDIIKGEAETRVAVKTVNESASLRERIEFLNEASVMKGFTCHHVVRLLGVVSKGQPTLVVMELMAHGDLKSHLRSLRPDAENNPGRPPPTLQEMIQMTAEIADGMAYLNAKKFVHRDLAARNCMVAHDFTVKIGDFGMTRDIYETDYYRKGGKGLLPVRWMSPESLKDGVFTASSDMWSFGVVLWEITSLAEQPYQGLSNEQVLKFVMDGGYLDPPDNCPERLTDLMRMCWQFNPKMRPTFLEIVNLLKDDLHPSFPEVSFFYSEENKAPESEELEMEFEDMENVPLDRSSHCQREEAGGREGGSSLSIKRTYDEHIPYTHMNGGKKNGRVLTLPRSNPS

Substance	stability from insulin-degrading enzyme against ^125I A14 porcine insulin (TCA precipitation or HPLC assay) [1]	binding affinity as percent of native insulin [2]	times less binding affinity than native insulin [2]	TCA assay analysis of degradation, 10 minutes incubation [1]	TCA assay analysis of degradation, 20 minutes incubation [1]	TCA solubility after 15 minutes of incubation, IDE dilution 1:30 [1]
des-(B26-B30)-[Glu-B10; Thr-B14; Ser-B17; Tyr-B25-NH2] Radoyka II human insulin analogue (ligand)	4.5 times	10%	10 times			
^125I A14 mono-iodo porcine insulin (from UniProt P01315 25-54) (ligand)				25.9%	66.8%	22.5%
des-(B26-B30)-[Glu-B10; Ser-B17; Tyr-B25-NH2] Radoyka I human insulin analogue (ligand)		20%	5 times			
